Article PMC4742562, “Structure and Interactions of a Dimeric Variant of sHIP, a Novel Virulence Determinant of Streptococcus pyogenes” (Frontiers in Microbiology, 2016)

What was measured:
[1] = target: T1, HRGsingle peptide (single heparin-binding motif of histidine-rich glycoprotein) (human); experiment: ITC; 0.5 mM HRGsingle peptide titrated into 0.05 mM sHIPwt or sHIPqp, 20 mM MES pH 5.5, 25°C; one independent binding site model; conditions: both partners purified
T1 construct: also called GHHPHG; source: synthetic peptide (Biosyntan GmbH, Berlin)

[2] = target: the molecule itself; experiment: AUC; sedimentation velocity, 20°C, 50000 rpm, 20 mM MES pH 5.5; c(S) distribution compared with theoretical sedimentation coefficients (HYDROPRO)

B1: quadruple mutant protein sHIP, sHIPqp (natural protein)
chain: SMKQDQLIVEKMEQTYEAFSPKLANLIEALDAFKEHYEEYATLRNFYSSDEWFRLANQPWDDIPSGVLSEDLLFDMIGDHNQLAADIADLAPIMAKHM
notes: protein sHIP, S. pyogenes, UniProt Q99XU0, residues Lys3-Met98 with Leu84, Leu88, Tyr95 mutated to alanine and Cys65 to serine; Dimer by AUC and in the crystal; For NMR the protein was double-labelled (15N, 13C), grown in minimal medium; also called sHIPqp mutant; sHIP mutant; source: E. coli Rosetta BL21 (DE3), purified (IMAC, His-tag removed with TEV protease, reverse phase chromatography); not …
[1]
  Kd: 2.8 ± 0.3 µM
[2]
  stoichiometry N: 2
